Experiment in all cases: filter binding
For series [1], the target named is T1, Cbf5;Nop10;Gar1;Nhp2 (Saccharomyces cerevisiae;Saccharomyces cerevisiae;Saccharomyces cerevisiae;Saccharomyces cerevisiae) (UniProt P33322+Q6Q547+P28007+P32495).
T1 sequence 1: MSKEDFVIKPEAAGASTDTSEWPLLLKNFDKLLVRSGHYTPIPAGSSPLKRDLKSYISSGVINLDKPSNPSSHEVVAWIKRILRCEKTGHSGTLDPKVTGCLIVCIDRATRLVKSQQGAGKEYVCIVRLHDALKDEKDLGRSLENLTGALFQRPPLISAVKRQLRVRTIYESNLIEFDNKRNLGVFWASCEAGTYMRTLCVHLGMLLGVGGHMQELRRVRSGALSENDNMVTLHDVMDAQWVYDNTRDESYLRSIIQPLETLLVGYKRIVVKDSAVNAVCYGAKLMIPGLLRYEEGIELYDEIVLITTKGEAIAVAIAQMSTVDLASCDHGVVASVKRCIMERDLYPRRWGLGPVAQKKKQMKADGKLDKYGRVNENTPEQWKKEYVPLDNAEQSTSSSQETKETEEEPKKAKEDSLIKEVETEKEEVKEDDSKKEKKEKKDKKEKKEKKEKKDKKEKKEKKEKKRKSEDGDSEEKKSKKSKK
T1 sequence 2: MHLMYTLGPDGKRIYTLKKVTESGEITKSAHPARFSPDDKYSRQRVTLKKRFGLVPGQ
T1 sequence 3: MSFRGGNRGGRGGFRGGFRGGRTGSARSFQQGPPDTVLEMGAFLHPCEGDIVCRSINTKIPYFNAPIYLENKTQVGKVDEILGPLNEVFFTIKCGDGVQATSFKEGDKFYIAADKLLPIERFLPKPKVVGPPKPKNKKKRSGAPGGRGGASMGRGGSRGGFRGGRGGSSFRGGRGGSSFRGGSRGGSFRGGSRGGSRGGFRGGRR
T1 sequence 4: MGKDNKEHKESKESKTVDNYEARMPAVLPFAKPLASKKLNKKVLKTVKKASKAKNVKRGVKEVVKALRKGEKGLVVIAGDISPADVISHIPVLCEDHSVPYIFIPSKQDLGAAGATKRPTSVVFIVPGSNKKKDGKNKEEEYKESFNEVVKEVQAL
The following applies: 20 mM HEPES-KOH pH 7.4, 150 mM NaCl, 1.5 mM MgCl2, 10% glycerol, 30°C, 10 min; nitrocellulose filtration.

For series [2], the target named is T2, Utp23 (Saccharomyces cerevisiae?) (UniProt Q12339).
T2 sequence: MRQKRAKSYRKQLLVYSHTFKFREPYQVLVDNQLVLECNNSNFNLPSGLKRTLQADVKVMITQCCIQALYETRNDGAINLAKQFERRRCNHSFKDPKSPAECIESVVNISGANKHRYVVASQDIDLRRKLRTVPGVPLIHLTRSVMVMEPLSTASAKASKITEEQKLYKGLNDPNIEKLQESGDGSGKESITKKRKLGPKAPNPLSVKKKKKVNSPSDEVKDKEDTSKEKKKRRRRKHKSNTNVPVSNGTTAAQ
The conditions noted are these: 20 mM HEPES-KOH pH 7.4, 150 mM NaCl, 1.5 mM MgCl2, 10% glycerol, 30°C, 10 min; nitrocellulose filtration.

For series [3], the target named is T3, Cbf5;Nop10;Gar1 (Saccharomyces cerevisiae;Saccharomyces cerevisiae;Saccharomyces cerevisiae) (UniProt P33322+Q6Q547+P28007).
T3 sequence 1: T1 sequence 1
T3 sequence 2: T1 sequence 2
T3 sequence 3: T1 sequence 3
The conditions noted are these: no Nhp2; single replicate; 20 mM HEPES-KOH pH 7.4, 150 mM NaCl, 1.5 mM MgCl2, 10% glycerol, 30°C, 10 min; nitrocellulose filtration.

Series [4] deals with T4, Nhp2 (Saccharomyces cerevisiae) (UniProt P32495).
T4 sequence: T1 sequence 4
The following applies: Nhp2 alone, 20 mM HEPES-KOH pH 7.4, 150 mM NaCl, 1.5 mM MgCl2, 10% glycerol, 30°C, 10 min, nitrocellulose filtration.

The record followed here is paper PMC9176245.

Values joined by “and” are separate entries in the source; they are usually repeats but may differ in a detail not shown here. Equal entries are not always repeated. Some results are limits rather than exact numbers.

As to “GGGAUUUUUUCGUGUACUGGAUUUCCAACGGGGCCUUUCCUUCUGGCUAACCUUGAGUCCUUGUGGCUCUUGGCGAACCAGGA [C2-ES6H1]”, in series [1], the Kd – broadly, the equilibrium constant for the complex coming apart – was 405 nM and 560 nM.

As to “GGGCCGACUAGGGAUCGGGUGGUGUUUUUUUAAUGACCCACUCGGCACCUUACGAGAAAUCAAAGUCUUUGGGU [H25/26]”, the Kd in series [1] was determined as 92 nM.

Regarding “GGGUUAAUAGGGACGGUCGGGGGCAUCAGUAUUCAAUUGUCAGAGGUGAAAUUCUUGGAUUUAUUGAAGACUAACUACUGCGAAAGCAUUUGCCAAGGACGUUUUC [H22/23]”, the figures for the Kd in series [1] and in series [2] were 84 nM and 8.8 nM, respectively.

As to mitochondrial tRNAMet, the values for the Kd in series [1] and in series [2] were 746 nM and below 2 nM, respectively.

snR30 full-length: the Kd in series [3] was found to be 1.2 nM; in series [1], 0.9 nM; in series [4] (replicate 1) it was 116 nM; in series [4] (replicate 2), 212 nM; in series [2], 17.5 nM.

In turn, snR81 displayed a Kd in series [2] of 4.7 nM.
